Results published in the supplement of paper PMC10598134.
± gives the standard deviation.

Assay: collision cross section of modified peptide (TIMS, N2, iRT-aligned); higher = larger / more extended gas-phase ion
Outline: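 Collision cross section was derived from the Mason-Schamp equation. Each value averages 1–3 technical replicates of the most abundant feature per charge state, measured on a timsTOF Pro/HT in dda-PASEF mode (nitrogen, ~2.4 mbar) after a 120-min nanoflow C18 gradient at 60 °C. Synthetic peptide pools (~100 fmol/µL in 2% acetonitrile/0.1% formic acid, iRT standard spiked 1:40) were identified with MaxQuant, and 1/K0 was calibrated with three reference ions and aligned run-wise to the median iRT peptide deviation.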

[1] = charge state: 2, modification: Glutarylation
[2] = charge state: 3, modification: Glutarylation
[3] = charge state: 2, modification: Malonyl
[4] = charge state: 2, modification: Phospho (Y)
[5] = charge state: 2, modification: Citrullination (R)
[6] = charge state: 2, modification: Succinyl
[7] = charge state: 3, modification: Succinyl
[8] = charge state: 2, modification: Nitro (Y)
[9] = charge state: 3, modification: Nitro (Y)
[10] = charge state: 2, modification: Butyryl
[11] = charge state: 2, modification: hydroxyisobutyryl
[12] = charge state: 2, modification: Acetyl (K)
[13] = charge state: 2, modification: Crotonyl
[14] = charge state: 2, modification: Methyl (K)
[15] = charge state: 3, modification: Methyl (K)
[16] = charge state: 2, modification: Dimethyl (K)
[17] = charge state: 3, modification: Dimethyl (K)
[18] = charge state: 2, modification: HexNAc (ST)
[19] = charge state: 2, modification: Trimethyl (K)
[20] = charge state: 3, modification: Trimethyl (K)
[21] = charge state: 3, modification: hydroxyisobutyryl
[22] = charge state: 2, modification: Methyl (R)
[23] = charge state: 3, modification: Methyl (R)
[24] = charge state: 3, modification: Phospho (Y)
[25] = charge state: 2, modification: Formyl
[26] = charge state: 2, modification: Biotin
[27] = charge state: 3, modification: Biotin
[28] = charge state: 3, modification: Acetyl (K)

Substance: VLTANSNPSSPSAAKR [_VLTANSNPSSPSAAK(Gluratylation)R_]
- collision cross section [1]: 432.88 ± 2 Å²
- collision cross section [2]: 532.45 ± 0.12 Å²

Substance: AAINQKLIETGER [_AAINQK(GlyGly (K))LIETGER_]
- collision cross section (charge state: 2, modification: GlyGly (K)): 412.96 ± 0.98 Å²
- collision cross section (charge state: 3, modification: GlyGly (K)): 477.22 ± 1.3 Å²

Substance: VGLQVVAVKAPGFGDNR [_VGLQVVAVK(Malonyl)APGFGDNR_]
- collision cross section [3]: 445.13 ± 1 Å²
- collision cross section (charge state: 3, modification: Malonyl): 541.36 ± 0.027 Å²

Substance: TEVNSGFFYK [_TEVNSGFFY(Phospho (Y))K_]
- collision cross section [4]: 373.38 ± 0.68 Å²

Substance: FRSGNYR [_FR(Citrullination (R))SGNYR_]
- collision cross section [5]: 327.94 ± 2.8 Å²

Substance: LLEEEDSKLK [_LLEEEDSK(Succinyl)LK_]
- collision cross section [6]: 381.87 ± 0.24 Å²
- collision cross section [7]: 464.35 Å²

Substance: AYGELPEHAK [_AY(Nitro (Y))GELPEHAK_]
- collision cross section [8]: 361.5 ± 1.2 Å²
- collision cross section [9]: 445.86 ± 1.2 Å²

Substance: IVSGKDYNVTANSK [_IVSGK(Butyryl)DYNVTANSK_]
- collision cross section [10]: 419.09 ± 2.9 Å²

Substance: ISALQGKLSK [_ISALQGK(hydroxyisobutyryl)LSK_]
- collision cross section [11]: 359.85 ± 0.79 Å²

Substance: VDIDAPDVSIEGPDAKLK [_VDIDAPDVSIEGPDAK(Acetyl (K))LK_]
- collision cross section [12]: 462.55 ± 2.9 Å²

Substance: DYSSGFGGKYGVQADR [_DYSSGFGGK(Crotonyl)YGVQADR_]
- collision cross section [13]: 437.04 ± 0.54 Å²

Substance: LQLEIDQKK [_LQLEIDQK(Methyl (K))K_]
- collision cross section [14]: 367.47 ± 2.8 Å²
- collision cross section [15]: 429.39 ± 5.2 Å²

Substance: SLEEEGAAHSGKR [_SLEEEGAAHSGK(Dimethyl (K))R_]
- collision cross section [16]: 412.8 ± 3 Å²
- collision cross section [17]: 453.89 ± 1.2 Å²

Substance: APIISGVTK [_APIIS(HexNAc (ST))GVTK_]
- collision cross section [18]: 340.53 ± 0.64 Å²

Substance: GGPGSTLSFVGKR [_GGPGSTLSFVGK(Trimethyl (K))R_]
- collision cross section [19]: 401.16 Å²
- collision cross section [20]: 424.62 ± 2.4 Å²

Substance: ALLQAKASGK [_ALLQAK(Methyl (K))ASGK_]
- collision cross section [14]: 342.45 ± 0.79 Å²
- collision cross section [15]: 423.28 ± 5 Å²

Substance: VETTVTSLKTK [_VETTVTSLK(hydroxyisobutyryl)TK_]
- collision cross section [11]: 389.83 ± 0.81 Å²
- collision cross section [21]: 450.94 ± 1.9 Å²

Substance: SLFFGGKGAPLQR [_SLFFGGK(Acetyl (K))GAPLQR_]
- collision cross section [12]: 401.47 ± 0.85 Å²

Substance: SPASDTYIVFGEAK [_SPASDTY(Nitro (Y))IVFGEAK_]
- collision cross section [8]: 402.5 ± 0.55 Å²
- collision cross section [9]: 486.92 Å²

Substance: VSPASSVDSNIPSSQGYKK [_VSPASSVDSNIPSSQGYK(Trimethyl (K))K_]
- collision cross section [20]: 548.09 ± 0.9 Å²

Substance: PSVGSQSNQAGQGKR [_PSVGSQSNQAGQGK(Succinyl)R_]
- collision cross section [6]: 415.39 ± 2 Å²
- collision cross section [7]: 455.72 ± 2.4 Å²

Substance: VLATQPGPGRGR [_VLATQPGPGR(Methyl (R))GR_]
- collision cross section [22]: 376.85 ± 0.74 Å²
- collision cross section [23]: 455.74 ± 9.5 Å²

Substance: AQLSQYFDAVK [_AQLSQY(Nitro (Y))FDAVK_]
- collision cross section [8]: 386.8 ± 0.8 Å²

Substance: LAPEYEAAATR [_LAPEY(Nitro (Y))EAAATR_]
- collision cross section [8]: 362.69 ± 1.2 Å²
- collision cross section [9]: 436.11 ± 1.1 Å²

Substance: YVHADAPTNK [_Y(Phospho (Y))VHADAPTNK_]
- collision cross section [4]: 354.72 ± 0.065 Å²
- collision cross section [24]: 420.4 ± 1 Å²

Substance: IISSIEQKEENK [_IISSIEQK(Crotonyl)EENK_]
- collision cross section [13]: 407.53 ± 0.9 Å²

Substance: DHLSDKESK [_DHLSDK(Formyl)ESK_]
- collision cross section [25]: 345.83 ± 0.37 Å²

Substance: IQQELQTAKK [_IQQELQTAK(Crotonyl)K_]
- collision cross section [13]: 386.16 ± 0.79 Å²
- collision cross section (charge state: 3, modification: Crotonyl): 431.2 ± 1.6 Å²

Substance: LGGDLGTYVINK [_LGGDLGTY(Phospho (Y))VINK_]
- collision cross section [4]: 375.25 ± 0.063 Å²

Substance: LGILPVGRGK [_LGILPVGR(Citrullination (R))GK_]
- collision cross section [5]: 340.52 ± 0.26 Å²

Substance: VGTASVLQPVKK [_VGTASVLQPVK(Crotonyl)K_]
- collision cross section [13]: 387.11 ± 0.8 Å²

Substance: GPPGPPGK [_GPPGP(Hydroxyproline)PGK_]
- collision cross section (charge state: 2, modification: Hydroxyproline): 274.06 ± 0.78 Å²

Substance: AVPSSPAGSAARGR [_AVPSSPAGSAAR(Citrullination (R))GR_]
- collision cross section [5]: 365.96 ± 0.94 Å²
- collision cross section (charge state: 3, modification: Citrullination (R)): 481.37 ± 0.56 Å²

Substance: ALLQAKASGK [_ALLQAK(Gluratylation)ASGK_]
- collision cross section [1]: 353.63 ± 0.71 Å²

Substance: DLGKFQVATDALK [_DLGK(Trimethyl (K))FQVATDALK_]
- collision cross section [19]: 414.1 ± 0.6 Å²
- collision cross section [20]: 492.6 ± 1.8 Å²

Substance: IHNAENIQPGEQKYEYK [_IHNAENIQPGEQK(hydroxyisobutyryl)YEYK_]
- collision cross section [11]: 491.39 ± 0.68 Å²
- collision cross section [21]: 532.88 ± 2 Å²

Substance: SNEEGSEEKGPEVR [_SNEEGSEEK(Formyl)GPEVR_]
- collision cross section [25]: 397.09 ± 0.55 Å²

Substance: DLSTVEALQNLKNLK [_DLSTVEALQNLK(Malonyl)NLK_]
- collision cross section [3]: 481.83 ± 1.5 Å²

Substance: VNIGQGSHPQKVK [_VNIGQGSHPQK(Dimethyl (K))VK_]
- collision cross section [16]: 407.47 ± 1.1 Å²
- collision cross section [17]: 469.28 Å²

Substance: ISSNFSSIIAEKLR [_ISSNFSSIIAEK(Butyryl)LR_]
- collision cross section [10]: 436.86 ± 0.55 Å²

Substance: ITGKNQVTATK [_ITGK(Malonyl)NQVTATK_]
- collision cross section [3]: 362.15 ± 0.018 Å²

Substance: LYAVHQEGNK [_LY(Phospho (Y))AVHQEGNK_]
- collision cross section [4]: 367.74 ± 0.74 Å²
- collision cross section [24]: 466.01 ± 0.98 Å²

Substance: VRFHNPR [_VR(Methyl (R))FHNPR_]
- collision cross section [22]: 340.13 ± 1.8 Å²
- collision cross section [23]: 406.89 ± 0.36 Å²

Substance: DYSVTANSK [_DY(Nitro (Y))SVTANSK_]
- collision cross section [8]: 331.98 ± 0.55 Å²

Substance: GEVGAGAGPGAQAGPSAKR [_GEVGAGAGPGAQAGPSAK(Gluratylation)R_]
- collision cross section [1]: 425.64 ± 1.1 Å²
- collision cross section [2]: 490.81 ± 0.95 Å²

Substance: ITESVAETAQTIKK [_ITESVAETAQTIK(Trimethyl (K))K_]
- collision cross section [19]: 451.09 ± 1 Å²
- collision cross section [20]: 496.11 ± 2.8 Å²

Substance: SGFGKFER [_SGFGK(Dimethyl (K))FER_]
- collision cross section [16]: 334.57 ± 1.1 Å²

Substance: LTSLNVKYNNDK [_LTSLNVK(Dimethyl (K))YNNDK_]
- collision cross section [16]: 409.23 ± 0.76 Å²
- collision cross section [17]: 464.81 ± 1.6 Å²

Substance: ANEKTESSSAQQVAVSR [_ANEK(Trimethyl (K))TESSSAQQVAVSR_]
- collision cross section [20]: 495.46 ± 1.6 Å²

Substance: VGIDTPDIDIHGPEGKLK [_VGIDTPDIDIHGPEGK(Dimethyl (K))LK_]
- collision cross section [17]: 537.38 ± 0.61 Å²

Substance: TPNLYIYSKK [_TPNLYIYSK(Gluratylation)K_]
- collision cross section [1]: 398.57 ± 0.6 Å²
- collision cross section [2]: 451.21 ± 1.7 Å²

Substance: RFSPPSSSLQPGK [_RFS(HexNAc (ST))PPSSSLQPGK_]
- collision cross section [18]: 414.91 ± 1 Å²
- collision cross section (charge state: 3, modification: HexNAc (ST)): 448.47 ± 9.4 Å²

Substance: LEEVTGKLQVAR [_LEEVTGK(Gluratylation)LQVAR_]
- collision cross section [1]: 400.05 ± 0.12 Å²
- collision cross section [2]: 468.97 Å²

Substance: ALYETELADAR [_ALY(Phospho (Y))ETELADAR_]
- collision cross section [4]: 383.83 ± 0.063 Å²

Substance: DHLSDKESK [_DHLSDK(Acetyl (K))ESK_]
- collision cross section [12]: 350.98 ± 1.6 Å²

Substance: VYSGHQGR [_VY(Phospho (Y))SGHQGR_]
- collision cross section [4]: 330.73 ± 0.068 Å²
- collision cross section [24]: 415.14 ± 2.5 Å²

Substance: ALASIDSKLNQAK [_ALASIDSK(Biotin)LNQAK_]
- collision cross section [26]: 417.14 ± 2.9 Å²
- collision cross section [27]: 481.19 Å²

Substance: DFDTALKHYDK [_DFDTALK(Malonyl)HYDK_]
- collision cross section [3]: 405.79 ± 0.59 Å²

Substance: GSLEKGSPEDK [_GSLEK(Acetyl (K))GSPEDK_]
- collision cross section [12]: 363.99 ± 0.16 Å²

Substance: DFDTALKHYDK [_DFDTALK(Biotin)HYDK_]
- collision cross section [26]: 424.89 ± 0.23 Å²
- collision cross section [27]: 488.66 Å²

Substance: TTGFYSGFSEVAEKR [_TTGFYSGFSEVAEK(Malonyl)R_]
- collision cross section [3]: 440.22 ± 1.2 Å²

Substance: GADFLVTEVENGGSLGSKK [_GADFLVTEVENGGSLGSK(Acetyl (K))K_]
- collision cross section [12]: 465.51 Å²
- collision cross section [28]: 541.97 Å²

Substance: LQEKVESAQSEQK [_LQEK(Acetyl (K))VESAQSEQK_]
- collision cross section [12]: 412.85 ± 1.8 Å²
- collision cross section [28]: 502.13 ± 0.084 Å²

Substance: LLIVSTTPYSEKDTK [_LLIVSTTPYSEK(hydroxyisobutyryl)DTK_]
- collision cross section [11]: 461.48 ± 0.76 Å²
- collision cross section [21]: 486.54 ± 2.8 Å²

Substance: LGILPVGRGK [_LGILPVGR(Methyl (R))GK_]
- collision cross section [22]: 355.35 ± 1.4 Å²
- collision cross section [23]: 437.92 Å²

Substance: VYIASSSGSTAIKK [_VYIASSSGSTAIK(Butyryl)K_]
- collision cross section [10]: 422.89 ± 0.77 Å²
- collision cross section (charge state: 3, modification: Butyryl): 508.32 ± 2.9 Å²

Substance: FLQEFYQDDELGKK [_FLQEFYQDDELGK(Malonyl)K_]
- collision cross section [3]: 451.48 ± 0.99 Å²
